Assays:
[1] = test system: ZF-QQR (synthetic construct); assay: EMSA; conditions: CITED ref 34; exact hybrid used in cited work not given; cited from earlier work
[2] = test system: ZF-QQR-FN (consensus zinc fingers-FokI cleavage domain fusion) (synthetic construct); assay: EMSA; conditions: apparent Kd
[3] = test system: ZF-QQR-FN (consensus zinc fingers-FokI cleavage domain fusion) (synthetic construct); assay: cleavage_in_vitro; conditions: DNA strand cleaved, ~100-fold slower than duplex; RNA strand not cleaved
[4] = molecular target: ZF-Sp1C (synthetic construct) (UniProt P08047); assay: EMSA; conditions: CITED ref 34; DNA-RNA hybrid; cited from earlier work
ZF-Sp1C (synthetic construct), sequence (P08047 626-708): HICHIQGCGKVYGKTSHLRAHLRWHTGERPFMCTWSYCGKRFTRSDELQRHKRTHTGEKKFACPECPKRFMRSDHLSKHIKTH

Sequence	Kd [1] [nM]	Kd [2] [nM]	activity [3] [%]	Kd [4] [nM]
GAGCTCCTTTGGATCCAAGCTTCCCGGGGAAGAATTCGAGGAGGCTCTCGAGGTCGACTTCCTCTAGAGGTACC / GGUACCUCUAGAGGAAGUCGACCUCGAGAGCCUCCUCGAAUUCUUCCCCGGGAAGCUUGGAUCCAAACCAGCUC [QQR site DNA-RNA hybrid]	2.8	3	1	
GGGGCGGGG [Sp1C site DNA-RNA hybrid]				40

Source: US5792640
